The target in the assay is PrP^Sc enriched from elk brain infected with chronic wasting disease (elk) (UniProt P67986). Nature of the assay: SPR. On the technique in general: SPR reads the build-up and loss of mass on a sensor chip optically.
UniProt P67986, sequence (P67986 25-233 limits assumed): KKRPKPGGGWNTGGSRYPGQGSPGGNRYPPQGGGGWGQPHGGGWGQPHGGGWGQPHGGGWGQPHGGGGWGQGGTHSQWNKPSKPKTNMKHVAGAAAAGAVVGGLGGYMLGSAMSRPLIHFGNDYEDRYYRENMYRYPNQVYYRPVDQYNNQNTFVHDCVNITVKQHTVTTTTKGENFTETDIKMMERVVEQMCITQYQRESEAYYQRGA

By Kd is commonly meant the concentration at which binding is half-saturated. Low values mean a tighter complex, high ones a looser complex. On to “purified full-length CD21 (from UniProt P20023 21-1033) (receptor)”, for which the Kd was 16 nM.

Values taken from publication PMC5700378.
